Data published in US20090318535A1 (NEW YORK UNIVERSITY, published 2009).

Experiments:
[1] = target: T1, HA-BimEL (S94/98A) mutant (human, UniProt O43521 1-198); assay: co-immunoprecipitation with HA resin from transfected HEK293 cells (FIG. 2A)
T1 construct: HA-tagged, expressed in HEK293
Method: Twenty-four hours after transfection, cells were treated for 3 hours with PMA and MG 132. Whole cell extracts (WCE) were subjected to immunoprecipitation using HA resin (α-HA) followed by immunoblotting with indicated antibodies.

[2] = target: T2, human BimEL (Bcl-2-Interacting Mediator of cell death, Extra Long isoform) (human, UniProt O43521 1-198, phosphorylated in cells after PMA treatment (Ser69, Ser93, Ser94, Ser98 as the filing reports)); assay: co-immunoprecipitation with FLAG resin from HEK293 cells expressing FLAG-tagged F-box proteins, immunoblot for BimEL
T2 construct: 198 aa protein, GenBank AAC39593; also called HA-BimEL WT; wild-type BimEL
Method: For these binding studies, HEK293 cells were transfected with the indicated FLAG-tagged Fbw family F-box protein constructs (in FIG. 1). Twenty-four hours after transfection cells were treated for 3 hours with PMA (20 nM) and the proteasome inhibitor MG132 (10 μM) then harvested and lysed. Whole cell extracts (WCE) were subjected to immunoprecipitation using FLAG resin (α-FLAG), followed by immunoblotting with indicated antibodies (EV: empty vector).

- binding result [1]: no binding
B1: human β-TrCP1 (beta-transducin repeat containing protein 1) (other)
chain: MDPAEAVLQEKALKFMCSMPRSLWLGCSSLADSMPSLRCLYNPGTGALTAFQNSSEREDCNNGEPPRKIIPEKNSLRQTYNSCARLCLNQETVCLASTAMKTENCVAKTKLANGTSSMIVPKQRKLSASYEKEKELCVKYFEQWSESDQVEFVEHLISQMCHYQHGHINSYLKPMLQRDFITALPARGLDHIAENILSYLDAKSLCAAELVCKEWYRVTSDGMLWKKLIERMVRTDSLWRGLAERRGWGQYLFKNKPPDGNAPPNSFYRALYPKIIQDIETIESNWRCGRHSLQRIHCRSETSKGVYCLQYDDQKIVSGLRDNTIKIWDKNTLECKRILTGHTGSVLCLQYDERVIITGSSDSTVRVWDVNTGEMLNTLIHHCEAVLHLRFNNGMMVTCSKDRSIAVWDMASPTDITLRRVLVGHRAAVNVVDFDDKYIVSASGDRTIKVWNTSTCEFVRTLNGHKRGIACLQYRDRLVVSGSSDNTIRLWDIECGACLRVLEGHEELVRCIRFDNKRIVSGAYDGKIKVWDLVAALDPRAPAGTLCLRTLVEHSGRVFRLQFDEFQIVSSSHDDTILIWDFLNDPAAQAEPPRSPSRTYTYISR
notes: also called Fbp1
- binding result [2]: binds
